Experimental data reported in US20200277361A1 (PROTHENA BIOSCIENCES, published 2020).

Columns and labels:
pH4.0-treated TTR [1] = biological target: T1, pH4.0-treated TTR (human, UniProt P02766 21-147); assay: Sandwich ELISA (pH4-TTR)
[2] = biological target: recombinant human TTR F87M/L110M (human, UniProt P02766 21-147); assay: SPR, mAb captured on anti-mouse IgG chip, TTR F87M/L110M as analyte
pH4.0-treated TTR [3] = biological target: T1, pH4.0-treated TTR; assay: ELISA on pH4-treated TTR captured on an anti-His coated plate, anti-mouse HRP detection, OD450
pH4.0-treated TTR [4] = biological target: T1, pH4.0-treated TTR; assay: ELISA, pH4-TTR captured on anti-His coated plate

B1: mouse antibody 5A1 (antibody, IgG1, V domains shown)
VH: EVKLVESGGGLVRPGGSLKLSCAASGFTFSNYAMSWVRQTPEKRLEWVASISSGGSTYYPDSVKGRFTISRDNARNILYLQMSSLRSEDTAMYYCVRYYYGQYFDFWGQGTALTVSS
VL: DIVMTQSHKFMSTSVGDRVSITCKASQDVSTTVAWYRQKPGQSPELLIYSASYRCTGVPDRFTGSGSGADFTFTISSVQAEDLAVYYCQQHYSTPLTFGAGTKLELK
notes: also called m5A1; mis-TTR antibody 5A1
pH4.0-treated TTR [1]
  Kd: 21.3 nM
[2]
  Kd: 7.68 nM
  koff: 0.000469 s⁻¹
  kon: 61100 M⁻¹ s⁻¹
pH4.0-treated TTR [3]
  EC50 (read off the curve): ~0.3 µg/mL
pH4.0-treated TTR [4]
  Kd: 23 nM
